In patent US7824868B2, “Formation of superfibronectin by BBK32 and uses therefor” (priority 2007, dated 2010):

Legend:
[1] = system: fibronectin matrix of normal human dermal fibroblasts (NHDFs); test: Effects on fibronectin matrix assembled by normal human dermal fibroblasts (immunostaining); format: cell-based; conditions: 5 μM, 20 hours
Method: Cells were treated for 20 hours and then fixed. […] Treated cells were incubated for 20 hours and probed with Alexa Fluor 488-anti-fibronectin, monoclonal antibody IST-1, and monoclonal antibody IST-9. Images were taken using LSM 510 Confocal Microscope. Bar=10 μm.
4×10^4 adult normal human dermal fibroblasts (NHDFs) (Cambrex, East Rutherford, N.J.) were seeded onto glass coverslips in 24 well Costar tissue culture plates in Fibroblast growth media-2 (FGM-2) (Cambrex). Cells were allowed to grow for 48 hours and then BBK32, Anastellin, or FnbpA peptide D3 was added to a final concentration of 5 μM in FGM-2. Treated cells were incubated for 20 hours at 37° C., 5% CO2. After incubation, cells were washed with Dulbecco's PBS (DPBS) (Gibco, Invitrogen, Carlsbad, Calif.) and fixed with 2% paraformaldehyde for 30 minutes at room temperature. Following washing with DPBS, cells were blocked with 1% BSA for one hour at room temperature. Cells were then probed with Alexa Fluor 488-anti-fibronectin, Texas Red anti-His, monoclonal antibodies IST-1 (plasma and cellular fibronectin) and IST-9 (cellular fibronectin) (abcam, Cambridge, UK) or combinations of antibodies at a dilution of 1:3000 for one hour at room temperature. Following extensive washing with DPBS, appropriate fluorescently labeled secondary antibodies (Alexa Fluor 594-goat anti-mouse) (Invitrogen, Carlsbad, Calif.) were added at a dilution of 1:3000 and incubated for one hour at room temperature. After incubation, cells were washed extensively with DPBS and coverslips were mounted using Gel/Mount (biømeda, Foster City, Calif.) onto glass slides and images were taken using a LSM 510 Confocal Microscope (Zeiss).

[2] = system: purified plasma fibronectin; test: Fibronectin aggregation assay (O.D.600); format: biochemical, human; conditions: for induction of plasma fibronectin aggregation (in words): 1 μM purified plasma fibronectin, absorbance at 600 nm
Chain of purified plasma fibronectin (P02751 32-1265 limits assumed): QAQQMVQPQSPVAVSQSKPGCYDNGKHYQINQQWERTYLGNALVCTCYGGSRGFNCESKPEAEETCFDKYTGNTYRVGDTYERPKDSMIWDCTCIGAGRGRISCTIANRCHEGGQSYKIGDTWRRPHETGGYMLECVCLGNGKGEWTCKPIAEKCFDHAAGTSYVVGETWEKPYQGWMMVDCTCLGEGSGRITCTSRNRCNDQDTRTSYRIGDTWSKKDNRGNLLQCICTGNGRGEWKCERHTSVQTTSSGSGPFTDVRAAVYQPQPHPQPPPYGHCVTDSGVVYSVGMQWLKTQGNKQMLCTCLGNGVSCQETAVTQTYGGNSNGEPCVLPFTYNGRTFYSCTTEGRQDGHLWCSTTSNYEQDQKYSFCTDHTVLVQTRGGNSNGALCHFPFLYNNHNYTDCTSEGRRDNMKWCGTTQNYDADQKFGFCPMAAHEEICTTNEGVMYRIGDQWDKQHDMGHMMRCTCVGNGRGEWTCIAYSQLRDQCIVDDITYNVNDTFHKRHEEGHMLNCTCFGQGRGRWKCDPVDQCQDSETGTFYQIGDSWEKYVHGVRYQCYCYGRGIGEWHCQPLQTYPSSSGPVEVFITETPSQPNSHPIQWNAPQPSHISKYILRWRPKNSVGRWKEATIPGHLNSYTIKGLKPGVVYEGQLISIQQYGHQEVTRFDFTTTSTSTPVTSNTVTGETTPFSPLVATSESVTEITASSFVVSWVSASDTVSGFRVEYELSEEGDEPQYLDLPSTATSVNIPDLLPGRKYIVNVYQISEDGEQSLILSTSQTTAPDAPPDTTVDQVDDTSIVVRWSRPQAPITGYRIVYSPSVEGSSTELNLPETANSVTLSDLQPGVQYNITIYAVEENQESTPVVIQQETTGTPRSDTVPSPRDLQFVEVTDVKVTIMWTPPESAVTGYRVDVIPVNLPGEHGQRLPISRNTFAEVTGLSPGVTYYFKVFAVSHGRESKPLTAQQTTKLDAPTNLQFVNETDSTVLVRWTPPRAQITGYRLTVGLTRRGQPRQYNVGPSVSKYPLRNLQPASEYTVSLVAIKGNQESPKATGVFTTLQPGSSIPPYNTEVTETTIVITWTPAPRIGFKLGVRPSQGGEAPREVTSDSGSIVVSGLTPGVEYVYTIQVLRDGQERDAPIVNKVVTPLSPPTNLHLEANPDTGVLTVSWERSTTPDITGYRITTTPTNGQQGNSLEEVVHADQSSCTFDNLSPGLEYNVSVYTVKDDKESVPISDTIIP
Method: BBK32, FnbpA peptide D3, Anastellin, and purified plasma fibronectin were centrifuged at 14,000 rpm for 15 minutes and then filtered through 0.22 μm PES syringe filters (Nalgene, Rochester, N.Y.). Following filtration, BBK32, FnbpA peptide D3, and Anastellin were titrated into 1 μM purified plasma fibronectin in TBS. After the addition of each aliquot, the fibronectin/protein mixture was carefully mixed five times with a 200 μl pipette and optical density at 600 nm was measured using a BioPhotometer (Eppendorf, New York, N.Y.) after 10 seconds.

[3] = system: leukocyte (mononuclear cell) migration across endothelial cell layer; test: Transendothelial migration assay (Transwell); format: cell-based; conditions: IL-4 treated endothelial layer, IL-8 chemoattractant, four hours
Method: To determine if sFn decrease the migration of leukocytes to the infection site, transendothelial migration assays were assessed. In these assays endothelial cells were grown to confluence in Transwell® inserts and were encouraged to form tight junctions using interleukin 4 (IL-4). SFn formation was then induced to form on the surface of the endothelial cell layer using BBK32 (21-354), (21-205) and (153-175). A chemoattractant (IL-8) was added to the bottom chamber of the Transwell setup. Mononuclear cells were added to the upper chamber and permitted to migrate for four hours. Following incubation, cells in the bottom chamber were counted.

[4] = system: human umbilical vein endothelial cells (HUVECs); test: Endothelial cell proliferation assay; format: cell-based; conditions: 72 hours; for effect on proliferation of endothelial cells (in words): cell counts
Method: Cells were seeded onto tissue culture plates in full media and allowed to adhere for two hours. […] Cells were then incubated for 72 hours at 37° C., 5% CO2. After 72 hours, wells were washed, trypsinized, and counted (three counts/well, three wells/dose) using a hemacytometer.
1×10^4 human umbilical vein endothelial cells (HUVECs) (Cambrex) were seeded into Costar 24 well tissue culture plates in endothelial growth media-2 (EGM-2) (Cambrex) and allowed to adhere for two hours. After two hours, BBK32, Anastellin, and FnbpA peptide D3 were added in a dose dependent manner (triplicate) to the wells suspended in EGM-2. Cells were allowed to incubate for 72 hours at 37° C., 5% CO2. After 72 hours, wells were washed with PBS and cells were trypsinized with 0.5% trypsin/EDTA (Cambrex). Trypsinized cells were collected in microcentrifuge tubes and trypsin/EDTA was neutralized with EGM-2. Cells were counted from each well (three counts/well, three wells/dose) using a hemacytometer.

plasma fibronectin = test: Proteolytic (thermolysin) digestion of fibronectin aggregates; format: biochemical, human; conditions: 20 μM inducer, 1 μM plasma fibronectin, 5 μg/ml thermolysin 2 hours, SDS-PAGE
Chain of plasma fibronectin (P02751 32-1265 limits assumed): as above
Method: The sequences obtained, SSPVVID (SEQ ID No. 12), AVEENQE (SEQ ID No. 13), and ITETIP (SEQ ID No. 14), were located to the end of ^13F3, middle of ^3F3, and the start of ^1F3, respectively for both BBK32/fibronectin and Anastellin/fibronectin. Pre-stained protein standard (New England Biolabs).
BBK32, Anastellin, and plasma fibronectin were dialyzed into thermolysin digestion buffer (25 mM Tris, 0.5 mM EDTA, pH 8, 50 mM NaCl, and 2.5 mM CaCl2). 20 μM BBK32 or 20 μM Anastellin was added to 1 μM plasma fibronectin. Solutions were mixed and aggregates were allowed to form for one hour at room temperature. After one hour incubation, 5 μg/ml thermolysin (Sigma) was added to the BBK32-sFn, the Anastellin-sFn, and to plasma fibronectin. The solutions were incubated at room temperature with end-over-end mixing for 2 hours. Digestion was stopped after two hours with the addition of EDTA to a final concentration of 5 mM. Samples were then run on 4-20% gradient SDS-PAGE gels under non-reducing conditions. […] Excess stain was removed with 40% methanol and bands that were present in BBK32-sFn and Anastellin-sFn, but not in plasma fibronectin lanes, were excised and analyzed by N-terminal sequencing using Edman degradation (Protein Sequencing Division, Tufts University Core Facility, Boston, Mass.).

[5] = system: fibronectin 56 kDa and 45 kDa gelatin binding fragments; test: Far Western blot of thermolysin digest of fibronectin; conditions: 56 kDa fragment vs 45 kDa gelatin binding fragment
Excerpt: BBK32 binds to the ^1F1-^5F1 N-terminal segment of fibronectin by the tandem beta-zipper mechanism (6-7).

endothelial cells = test: Annexin V apoptosis assay on endothelial cells; format: cell-based; conditions: not shown

## IDLTIDSDLRPKSSLQGIAGSNS (recombinant peptide from residues 153-175 of BBK32) [BBK32(153-175), BBK32 peptide, residues 153-175, containing the motifs similar to anastellin]
[1]
  immunostaining with monoclonal antibody IST 9 (EDA epitope of cellular fibronectin): indicates conformational changes in fibronectin in matrices produced by fibroblasts
[2]
  induction of plasma fibronectin aggregation (in words): induce aggregation of plasma fibronectin in a concentration dependent manner
[3]
  inhibition of transendothelial migration by induced sFn: as effective at inhibiting transendothelial migration as the full length BBK32 protein
[4]
  effect on proliferation of endothelial cells (in words): inhibits human umbilical vein endothelial cell proliferation in a concentration dependent manner

B1: BBK32(21-205): Recombinant fibronectin-binding segment, residues 21-205, of Borrelia burgdorferi lipoprotein BBK32 (SEQ ID NO: 6) (protein)
chain: DLFIRYEMKEESPGLFDKGNSILETSEESIKKPIKKPMNKKGKGKIARKKGKSKVSRKEPYIHSLKRDSANKSNFLQKNVILEEESLKTELLKEQSETRKEKIQKQQDEYKGMTQGSLNSLSGESGELEEPIESNEIDLTIDSDLRPKSSLQGIAGSNSISYTDEIEEEDYDQYYLDEYDEEDEEEIRL
modifications: recombinant peptide from residues 21-205 of BBK32
Plasma fibronectin
  thermolysin fragment profile of induced fibronectin aggregates: very similar fragment profiles
[1]
  co-localization with fibronectin in the extracellular matrix: co-localize with fibronectin
  immunostaining with monoclonal antibody IST 9 (EDA epitope of cellular fibronectin): reduction of immunostaining with IST 9
[5]
  relative binding to fibronectin thermolysin fragments: binds more strongly to the 56 kDa fragment than to the 45 kDa gelatin binding fragment
Endothelial cells
  Annexin V assays (apoptosis): negative
[2]
  induction of plasma fibronectin aggregation (in words): induced fibronectin aggregation
[2]; Triton X-100 added, not shown
  fibronectin aggregation on addition of detergent Triton X-100: inhibited fibronectin aggregation
[4]
  potency at inhibiting endothelial cell proliferation relative to Anastellin: reproducibly more potent at inhibiting endothelial cell proliferation than Anastellin
  effect on proliferation of endothelial cells (in words): inhibited the proliferation of endothelial cells in a concentration dependent manner
